A short description of this data set: amyloid nucleation score (Sup35N fusion, yeast selection) (log enrichment); library NNK1; higher = more nucleation; inactive = no reads after selection. In short, it runs like this:
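The nucleation score is the DiMSum log enrichment of output over input reads, centred on the mode score of non-aggregating sequences. Only sequences with 100 or more input reads were scored, using Illumina sequencing of input and output plasmid inserts. Psi-negative yeast expressing Sup35N fused to peptides of 20 random codons were induced 24 hours with 100 μM copper sulfate and grown 7 days at 30°C on medium lacking adenine and uracil.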

± gives the uncertainty stated by the source.

For FFVVELFVSHKLRLYRVRFG, the amyloid nucleation score amounted to 0.412 ± 0.62.
Under ADAGGSQVWAYQAQIICPKW stands -0.63 ± 1.3; under HYIIIRFLNAELTLCHLRMI, -1.61 ± 1.7.
Under AKGYTEMVKYHRVSTTMVFM stands “inactive”; under YLDCIYRGKIISIHTGSGIL, -0.449 ± 0.29; under CSDSVGSIYSHVRSGGLE, “inactive”.
The result for ILYGRIR reads “inactive”; that for LCTRFWDTMYLSSGYFGFLC, 1.03 ± 0.46; that for QMKAVLRLRINICCPQVRGT, 4.66 ± 0.1.
The substance LYIYTKFRFVMYVSWCVSDS had an amyloid nucleation score of 0.012 ± 0.62.
The result for FMVKHSDDRGYLCFLGIEKV reads 0.209 ± 0.93; that for GYVDPFRLYQGLMIFDYVGS, -0.332 ± 0.44; that for SVAHMVDISFVVHPVMSTGN, -1.1 ± 0.82.
The result for CLFDATVLNVLYQEIAEPRR reads “inactive”; that for IILSAHVLSRTFLAFVSQKE, 0.146 ± 0.77; that for YYLEGSNALYIKVDRILRLL, -0.187 ± 0.54.
The result for NIEGRVYRIDSAGGPCIYVL reads -0.621 ± 0.5; that for RDSQMMNT, 0.312 ± 0.37; that for RFMCWVFTGCLGLSGNSSC, 1.95 ± 0.16.
As to YSNLYFSLNNGNPVLKGYNG, the amyloid nucleation score was -0.17 ± 0.65.
Under AKIWVWSWWY stands 0.039 ± 0.47; under FCWKLGANIDVDECWRWAAD, 1.29 ± 0.63; under AAKRSETAP, -0.308 ± 0.43.
Under SYRHSSTSCKFGYVYRFTCL stands 1.19 ± 0.41.
The result for LSSTSV reads 0.425 ± 0.44; that for FNKQFCK, 0.776 ± 0.44; that for LFCDPAFGKHLCFRNAFCWF, 0.255 ± 0.23.
Consider VVAFYL, for which the amyloid nucleation score was 1.91 ± 0.37.
Turning to VYACLSHSVRV, the amyloid nucleation score came to 1.05 ± 0.97.
Under FQGMYWNGFSSSSMSAATPR stands 0.157 ± 0.52; under FYIILNVLFPRQVTCSDK, 5.7 ± 0.075.
LVFTMWLPKRDACPDLTTMM returned an amyloid nucleation score of 0.34 ± 0.47.
The substance TLKFGSYQAVRLSHSGKPDD yielded an amyloid nucleation score of 2.55 ± 0.1.
Under RSWPSCNCVAKANMCFARSL stands -0.521 ± 0.39; under IGHGTHG, 0.282 ± 0.49; under RRCLSIPLVCFRDKNMNMGF, -0.246 ± 0.46.
Substance DVSNTVFFTLLYLLGPRCRS had an amyloid nucleation score of 0.721 ± 0.38.
In turn, VNLRKEPDNRGLGLDFRLN gave an amyloid nucleation score of 0.001 ± 0.78.
The result for NKQETSKWLWECGDCSRYLY reads 1.18 ± 0.41; that for AFNKAVMSDTQL, -0.7 ± 0.6; that for VGFGPVWTRPYNTWYNYGKS, 0.514 ± 0.66.
The result for SFLLKKKVPWPFFCTCMLVG reads -0.575 ± 1.5.
The result for NHGLYTVFWGCCPWFSQNLF reads 7.894 ± 0.073.
Substance NIGMGSTLFLGRMSEQCWCS displayed an amyloid nucleation score of 2.32 ± 0.14.
The result for IWNVTPRGFDSAD reads -0.345 ± 0.97; that for DIKGRLLWGDKARLNEVPLR, 1.04 ± 0.57; that for INFCFKCWNKVWLDNFFLSS, -0.67 ± 0.22.
The result for SIRCLIREKA reads -0.238 ± 0.75.
Take VNLFLVMKFK: the amyloid nucleation score worked out at 6.676 ± 0.043.
Under RIMGFRTFEHWIININYLLL stands -0.094 ± 0.41; under VSAVDMMYHLLHRILGIIAC, 1.48 ± 0.55; under RIFLSVLLLMTVNVSVWPCH, -1.23 ± 1.5.
Under WEWSTGFRCC stands 0.566 ± 0.48; under ISQVYGDNTDFVLLVSSDNV, 0.544 ± 0.33.
In the case of LYNRIANFGPGYINLWVI, the amyloid nucleation score was 6.375 ± 0.061.
In turn, MVHKWVIFFNRTVCRLMLPV came in with an amyloid nucleation score of 0.589 ± 0.37.
The result for FVGGPPMIQYVVPV reads 0.326 ± 0.42.
The result for YFSYSLQKTAARRGVVMFTQ reads -0.378 ± 1.4; that for TDCHS, “inactive”.
Under SFAQLMGGAVSHYVFLPWNA stands -0.525 ± 0.85.
SYRRAVHGVVVQQKRDEFVL: the amyloid nucleation score is -0.026 ± 0.36.
Take IYNGWQIRGNVNMMLCVCEW: the amyloid nucleation score was determined as 6.568 ± 0.059.
The result for FWREHTMR reads “inactive”.
Regarding CKTLMLCTRICFDANQLASR, the amyloid nucleation score is 1.71 ± 0.78.
In turn, CRVMEKIEVCYIRYFFSWLD displayed an amyloid nucleation score of 0.574 ± 0.39.
WFNRSICSPNSHNDSSRFNQ: the amyloid nucleation score entry is “inactive”.
The result for EGRPECKARLSRYGRCRMNG reads 0.447 ± 0.48.
The result for TRTLLNVHCCPSVW reads 6.614 ± 0.054; that for ILMHSIAVFTRGIGRIRLAS, 0.913 ± 0.68.
In turn, YKMYWISVAVLKRYNLLHQS came in with an amyloid nucleation score of -0.111 ± 0.44.
The result for SESKGHHKCRRALLYRGM reads 0.418 ± 1.2; that for LVPSTFHTF, 0.149 ± 0.77.
For the substance YYESRNWSILFRLINMF, the amyloid nucleation score was -0.078 ± 0.46.
The result for SMSPTDICYWCLYHSAYIRD reads 1.55 ± 0.3.
Take DHFPARKVGCTILTCMMQKL: the amyloid nucleation score was determined as 0.697 ± 0.63.
The result for CLSYI reads -0.172 ± 0.27.
Turning to SCLPFLGYPFQDVGLIFLVA, the amyloid nucleation score is 0.749 ± 0.51.
With MACVVRVLGVMVHLKMLVGL, the amyloid nucleation score is -1.11 ± 1.
The result for QSTVTCRFMCVVWGSNW reads -0.078 ± 0.47; that for LGRGSAVSSPWVIIRIVNML, 0.784 ± 0.72.
Take YCQQT: the amyloid nucleation score is -1.28 ± 0.64.
Under SCYMHVR stands 0.372 ± 0.52.
The result for TGAYSECFALLIMG reads -1.09 ± 1.
As for YVFLRFVSVCSYN, the amyloid nucleation score is 4.9 ± 0.05.
The result for YFSLSVIREVCFFVPWKLRS reads 0.14 ± 0.43; that for IVMCEAYFK, “inactive”.
The result for GLLLSCSWNIDVSA reads 0.235 ± 0.56.
Under WLNRMFFGDLCDMAIWKMCM stands -0.217 ± 0.72; under ITCYGKCYPSRDKL, 1.27 ± 0.56.
Substance VRFIFSRSIGLQ had an amyloid nucleation score of -0.361 ± 0.42.
The result for VTRFSAGTITVLTRDWRANC reads -0.486 ± 1.6; that for RCMFAYLRVMDCNGGNVYPV, 0.409 ± 0.21.
The result for VLLWVGLTYATGLGRRSSLF reads -1.3 ± 0.97.
The result for LGTTDPYVYSIIMYAFLWIY reads 0.386 ± 0.47; that for WLVLHTNLMLGCSTRSMLCA, 0.174 ± 0.5.
In the case of CSGYDGNSSYNGSNPVSFND, the amyloid nucleation score came out at 0.056 ± 0.77.
The result for VRMSFRLVEPY reads -0.301 ± 0.81; that for MFSTKSH, 0.543 ± 0.49.
The result for GYHSMLSLDDQIFVKLHDAK reads 0.135 ± 1.2.
The result for VSSRITPS reads 1.11 ± 0.39.
In turn, ERLYLSRYSMVIFVGLMCKS returned an amyloid nucleation score of -0.145 ± 0.61.
Under FWVDCSRVVRLKIQFNLV stands 0.864 ± 0.42.
The result for VTRTSYWGVFWSHSWRTWM reads “inactive”; that for YTFGDAGHPESAMVTCRAYS, -0.007 ± 0.33.
As to LIMSFVFSI, the amyloid nucleation score was found to be 4.57 ± 0.08.
Under NLYMANGDVMCSREGAEQCS stands 1.5 ± 0.14.
In turn, VVSYSHAIVRLVLSCDMGRC displayed an amyloid nucleation score of 0.441 ± 0.47.
Under IDSFCKCDISCVIFSWIVVV stands 0.024 ± 0.25; under YFVQGNMNLSHCTCWCGNRT, 7.589 ± 0.046.
The result for VTRDMCGYLVCFWQYAG reads 7.728 ± 0.045; that for PWITCCKVNGIFLTDRCRVV, 0.574 ± 0.3.
Under LAYSNWALSCGIHIFRVTTS stands 0.792 ± 0.27; under CLAGLYNCGGR, 0.679 ± 0.65.
ESSIVVGCRGSGWTQDAASQ had an amyloid nucleation score of -0.465 ± 0.29.
LLSFLRSAKIQTGR returned an amyloid nucleation score of 0.229 ± 0.38.
The result for CTQGCHRVNWSVTYRVVFLA reads 0.848 ± 0.42; that for YYNNLRVSSYQSKFPIMAMF, “inactive”.
The result for IWILYLAFIVHKNVLLPRVL reads 0.123 ± 0.49.
The result for YLFMNRGTVSWRSVYDRV reads 0.104 ± 0.42; that for YGVMSLRGVRLVQDVKTRSF, -0.849 ± 0.62.
LRVVYPGPSYAGASDLSSMR yielded an amyloid nucleation score of -0.926 ± 0.63.
The result for YLQIWRLSRRSILL reads “inactive”; that for FQARHIFHVFLVSSSRVRLT, 1.65 ± 0.47; that for FSHIELLERAVLMSRVRFLW, -0.514 ± 1.5.
HTISENRSGLVTP came in with an amyloid nucleation score of -0.966 ± 0.9.
Substance ILPAYAQ registered an amyloid nucleation score of 0.134 ± 1.1.
The result for YCCSCASCGPGVNRSWGN reads 1.57 ± 0.16.
The substance LQYGNWPGGVFVWWFIKMHH gave an amyloid nucleation score of -0.02 ± 0.71.
Under ITGPIEGGVTK stands -0.118 ± 0.8; under AYWSGTYEGEWYLVDRQFYW, 0.542 ± 1; under DSRKSRYGSWVLRWS, “inactive”.
The result for FLQCNRNSVGRLVAHLCCAR reads “inactive”; that for STFWENIIVFFHGPYHDMHT, -0.647 ± 0.69.
The result for NKIGRAFVTSYGLRIHSGAG reads -0.32 ± 0.76; that for WCISTIGWRTDGCD, “inactive”; that for VISIFVEF, 3.69 ± 0.12.
RGFNVVHGGELRRMLMTEGD came in with an amyloid nucleation score of 0.926 ± 0.43.
The result for YFCQWH reads “inactive”; that for FIISRD, -0.028 ± 0.34.
